In paper PMC7835709, “Structural Insight Into the SARS-CoV-2 Nucleocapsid Protein C-Terminal Domain Reveals a Novel Recognition Mechanism for Viral Transcriptional Regulatory Sequences”:

Key:
[1] = target: SARS-CoV-2 N-CTD (SARS-CoV-2, UniProt P0DTC9 250-365); test: BLI; conditions: protein: recombinant; tags: 6xHis-SUMO tag removed by Ulp1; chain copies: 2; label: 5' biotin
[2] = target: T1, SARS-CoV-2 N LKR+CTD (SARS-CoV-2, UniProt P0DTC9 183-365); test: BLI; BLI (Octet RED96e, SSA sensors, biotinylated RNA immobilised): PBS, 0.02% Tween 20, 25 C; pH not stated; 1:1 kinetic fit; conditions: protein: recombinant; tags: 6xHis-SUMO tag removed by Ulp1; chain copies: 2; label: 5' biotin
[3] = target: T2, SARS-CoV-2 N CTD+IDR (SARS-CoV-2, UniProt P0DTC9 250-419); test: as above; conditions: protein: recombinant, tags: 6xHis-SUMO tag removed by Ulp1, chain copies: 2
[4] = target: T1, SARS-CoV-2 N LKR+CTD; test: BLI; value order as in text ('respectively'); BLI (Octet RED96e, SSA sensors, biotinylated RNA immobilised): PBS, 0.02% Tween 20, 25 C; pH not stated; 1:1 kinetic fit; conditions: protein: recombinant; tags: 6xHis-SUMO tag removed by Ulp1; chain copies: 2; label: 5' biotin
[5] = target: T2, SARS-CoV-2 N CTD+IDR; test: as above; conditions: protein: recombinant; tags: 6xHis-SUMO tag removed by Ulp1; chain copies: 2; label: 5' biotin

AAACGAAC (ssRNA) [TRS-2 (RNA2)]
Kd [1]: 180 µM | Kd [2]: 17 µM | Kd ([3]; label: 5' biotin): 9.1 µM

ACGAAC (ssRNA) [TRS-1 (RNA1)]
Kd [4]: 14 µM | Kd [5]: 33 µM | Kd [1]: 320 µM

B1: Duplex TRS-1 (RNA1/RNA4) (dsRNA)
RNA 1: ACGAAC
RNA 2: GUUCGU
Kd ([3]; blunt, 6 bp): 29 µM

B2: Unpaired Duplex TRS-1 (RNA1/RNA5, TRS1-cTRS2) (dsRNA)
RNA 1: ACGAAC
RNA 2: GUUCGUUU
Kd ([3]; 3' overhang 2 nt (UU) on strand 2): 23 µM

B3: Duplex TRS-2 (RNA2/RNA5) (dsRNA)
RNA 1: AAACGAAC
RNA 2: GUUCGUUU
Kd ([3]; blunt, 8 bp): 18 µM

B4: Duplex TRS-3 (RNA3/RNA6) (dsRNA)
RNA 1: AAACGAACUU
RNA 2: AAGUUCGUUU
Kd ([3]; blunt, 10 bp): 11 µM

B5: Unpaired Duplex TRS-2 (RNA2/RNA4) (dsRNA)
RNA 1: AAACGAAC
RNA 2: GUUCGU
Kd ([3]; 5' overhang 2 nt (AA) on strand 1 per Methods): 33 µM

AAACGAACUU (ssRNA) [TRS-3 (RNA3)]
Kd [1]: 150 µM | Kd [2]: 61 µM | Kd ([3]; label: 5' biotin): 5.9 µM
